No end group written: not given here.
Molecular target: T1, SIRT1 (Homo sapiens, UniProt Q96EB6)
T1 construct: made in house
T1 sequence (Q96EB6 1-747): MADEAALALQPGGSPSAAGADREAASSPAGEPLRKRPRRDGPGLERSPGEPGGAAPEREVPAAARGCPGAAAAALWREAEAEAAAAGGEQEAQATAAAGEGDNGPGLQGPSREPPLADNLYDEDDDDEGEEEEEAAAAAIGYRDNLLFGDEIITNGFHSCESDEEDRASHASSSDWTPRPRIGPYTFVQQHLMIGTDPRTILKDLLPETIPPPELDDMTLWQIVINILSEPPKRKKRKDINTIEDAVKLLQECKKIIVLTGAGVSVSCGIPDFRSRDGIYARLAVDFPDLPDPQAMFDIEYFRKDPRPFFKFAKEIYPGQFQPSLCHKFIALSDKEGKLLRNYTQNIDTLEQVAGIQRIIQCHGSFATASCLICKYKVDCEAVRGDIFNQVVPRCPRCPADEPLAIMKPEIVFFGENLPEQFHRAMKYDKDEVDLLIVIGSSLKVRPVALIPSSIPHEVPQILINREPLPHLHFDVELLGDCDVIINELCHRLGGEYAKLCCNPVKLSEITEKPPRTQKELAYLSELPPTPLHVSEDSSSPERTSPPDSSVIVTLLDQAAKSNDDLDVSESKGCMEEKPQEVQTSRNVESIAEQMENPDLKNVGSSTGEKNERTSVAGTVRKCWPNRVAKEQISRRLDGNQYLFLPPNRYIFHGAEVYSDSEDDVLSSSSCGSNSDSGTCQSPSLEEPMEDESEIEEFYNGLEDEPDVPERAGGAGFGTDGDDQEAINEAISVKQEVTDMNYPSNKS
Assay: Radioactive TLC-based [32P]-NAD+ in-solution kinetic analysis of resynthesized hits and non-hits
Assay type: biochemical
Details: for fold difference in catalytic activity in favor over WP(AcK)QQ: compared with WP(AcK)QQ, Table 3 values
Procedure: All solution phase Sir2 assays were carried out at 25° C. in 50 mM Tris.HCl. Reactions were done in 50-100 μL with 0.1-1.5 μM enzyme, 0.1-1.2 mM NAD^+, 0.5-1000 μM peptide and 1 mM DTT. Reaction mixtures were quenched with TFA to a final concentration of 1% after 5-10 min and nicotinamide levels were quantitated by HPLC at 264 nm.
Alternatively, [^32P]-NAD^+ (10 mCi/mL) was used in assays and quenched reaction mixtures were spotted on a silica TLC plate and run in a chamber containing 60% ethanol and 40 2.5 mM ammonium acetate for 3-4 hours. Levels of ^32P-OAADPr and ^32P-NAD^+ were then quantitated by phosphorimaging and the fraction turnover was calculated. Saturation curves were done at varying concentrations of peptide while holding that of NAD^+ constant. Time points were chosen such that product formation never exceeded 20% conversion and data were plotted as rate (s^−1) vs. peptide concentration. Plots were fitted to the Michaelis-Menten equation, v=[(kcat/Km)[S]]/(1+[S]/Km) using Kaleidagraph software (Reading, Pa.) to extract Km and kcat/Km.
To validate the results of the library screen, select hits and non-hits were resynthesized and subjected to in-solution kinetic analysis (Table 3). A radioactive TLC-based assay was employed with subsaturating levels of [^32P]-NAD^+ to determine the relative catalytic efficiencies (Jackson et al., 2003, J. Biol. Chem. 278: 50985-50998). In addition, two “consensus” peptides containing residues occurring with the highest and lowest frequency at each position, independent of context, were analyzed. For comparison, a 5-mer comprised of a sequence corresponding to a known site for p53 deacetylation by SIRT1 was assayed (Table 3).
In Table 3, efficiencies (^x=average) were obtained by fitting the data from [^32P]-NAD^+ assays to the modified Michaelis-Menten equation, v=[(kcat/Km)[S]]/(1+[S]/Km). […] Catalytic efficiencies of peptides containing the residues of the highest^b/lowest^c frequency at each position and the sequence relevant to p53 deacetylation in vivo^d are shown for comparison.

| catalytic activity, comparison of hits and non-hits in words (in-solution kinetic analysis) | fold difference in catalytic activity in favor over WP(AcK)QQ | Substance |
| --- | --- | --- |
| comparable to those of a few of the hits |  | AY(AcK)EV (Ac-AYK(Ac)EV) [resynthesized select non-hit] |
|  | 18 fold | QP(AcK)QI (Ac-QPK(Ac)QI) [resynthesized select hit of SIRT1 library screen] |
|  | seven | WH(AcK)QQ (Ac-WHK(Ac)QQ) |
